# Source: patent publication US10363306B2, “Cytokines and neuroantigens for treatment of immune disorders” (East Carolina University, priority 2009, dated 2019)
# B1: IFNβ-NAg: Fusion protein: rat IFNβ, enterokinase linker (GDDDDKG), encephalitogenic 73-87 peptide of guinea pig MBP, C-terminal 6-histidine tag (protein)
# chain: IDYKQLQFRQSTSIRTCQKLLRQLNGRLNLSYRTDFKIPMEVMHPSQMEKSYTAFAIQVMLQNVFLVFRSNFSSTGWNETIVESLLDELHQQTELLEIILKEKQEERLTWVTSTTTLGLKSYYWRVQRYLKDKKYNSYAWMVVRAEVFRNFSIILRLNRNFQNGDDDDKGPQKSQRSQDENPVVHHHHHH
# B2: IFNβ: Rat interferon beta cytokine with enterokinase linker and 6-histidine sequence, no neuroantigen (protein)
# chain: IDYKQLQFRQSTSIRTCQKLLRQLNGRLNLSYRTDFKIPMEVMHPSQMEKSYTAFAIQVMLQNVFLVFRSNFSSTGWNETIVESLLDELHQQTELLEIILKEKQEERLTWVTSTTTLGLKSYYWRVQRYLKDKKYNSYAWMVVRAEVFRNFSIILRLNRNFQNGDDDDKGHHHHHH
# Legend:
# [1] = test system: EAE in Lewis rats; assay: Treatment of ongoing EAE after disease onset; assay type: in vivo
# [2] = test system: EAE in Lewis rats; assay: Prevention of EAE by pretreatment before encephalitogenic challenge; assay type: in vivo
# [3] = Table 6 Experiment 1, s.c. day 9 (1 nmole), day 10 (1 nmole), day 12 (0.5 nmole) after DHFR-NAg in CFA day 0
# [4] = Table 6 Experiment 2, 1 nmole s.c. on days 9, 10, 12, and 14 after DHFR-NAg in CFA day 0
# [5] = Table 6 Experiments 1 & 2 compiled, treatment from day 9 after onset
# [6] = Table 7 Experiment 1, 1 nmole s.c. days 10, 11, and 13, severe EAE = scores from 1.0 to 3.0
# [7] = Table 7 Experiment 1, 1 nmole s.c. in saline days 10, 11, and 13, IFNβ + NAg as mixture
# [8] = Table 7 Experiment 2, 1 nmole s.c. days 9, 10, 12, and 14, severe EAE = scores from 1.0 to 3.0
# [9] = Table 7 Experiment 2, 1 nmole s.c. in saline days 9, 10, 12, and 14, IFNβ + NAg as mixture
# [10] = Table 7 Experiment 3, 1 nmole s.c. days 9, 10, and 12, severe EAE = scores from 1.0 to 3.0
# [11] = Table 7 Experiment 3, 1 nmole s.c. in saline days 9, 10, and 12, IFNβ + NAg as mixture
# [12] = Table 7 Experiments 1-3 compiled, 1 nmole s.c. after onset
# [13] = Table 7 Experiments 1-3 compiled, severe EAE = scores from 1.0 to 3.0
# [14] = Table 3, baculovirus-derived, 1 nmole s.c. days −21, −14, −7, challenge day 0, severe = EP or P
# [15] = Table 3, baculovirus-derived, 1 nmole s.c. in saline days −21, −14, −7, challenge 50 ug DHFR-NAg in CFA day 0
# [16] = Table 4 Exp. 1 & 2 combined, HEK293-derived, 1 nmole days −21, −14, −7, challenge day 0
# [17] = Table 4 Exp. 1, HEK293-derived, 1 nmole days −21, −14, −7, challenge day 0
# [18] = Table 4 Exp. 1, HEK293-derived, 1 nmole days −21, −14, −7, challenge day 0, severe = partial or full hindlimb paralysis
# [19] = Table 4 Exp. 1, HEK293-derived, 1 nmole in saline days −21, −14, −7, challenge DHFR-NAg in CFA day 0
# [20] = Table 4 Exp. 2, HEK293-derived, 1 nmole days −21, −14, −7, challenge day 0
# [21] = Table 4 Exp. 2, HEK293-derived, 1 nmole days −21, −14, −7, challenge day 0, severe = partial or full hindlimb paralysis
# [22] = Table 4 Exp. 2, HEK293-derived, 1 nmole in saline days −21, −14, −7, challenge DHFR-NAg in CFA day 0
# [23] = Table 5 Exp 1-2 compiled, 1 nmole s.c. days −21, −14, −7 (IFNβ + NAg: separate injections), challenge day 0
# [24] = Table 5 Exp 1, 1 nmole s.c. in saline days −21, −14, −7 (IFNβ + NAg: separate injections <0.5 cm apart), challenge DHFR-NAg in CFA day 0
# [25] = Table 5 Exp 2, 1 nmole s.c. in saline days −21, −14, −7 (IFNβ + NAg: separate injections <0.5 cm apart), challenge DHFR-NAg in CFA day 0
molecule,measurement,setting,value
B1,% mean maximal weight loss,[1]; [3],3.8 ± 2.0%
same,Incidence of severe EAE,[1]; [3],1 of 6
same,Mean # days with severe EAE,[1]; [3],0.1 ± 0.2 days
same,Mean cum. score,[1]; [3],3.4 ± 2.1
same,Mean maximal score,[1]; [3],0.7 ± 0.6
same,Median cum. score,[1]; [3],3.5
same,Median maximal score,[1]; [3],0.5
same,% mean maximal weight loss,[1]; [4],6.4 ± 5.0%
same,Incidence of severe EAE,[1]; [4],1 of 5
same,Mean # days with severe EAE,[1]; [4],0.1 ± 0.2 days
same,Mean cum. score,[1]; [4],2.7 ± 1.5
same,Mean maximal score,[1]; [4],0.7 ± 0.8
same,Median cum. score,[1]; [4],2.3
same,Median maximal score,[1]; [4],0.3
same,% mean maximal weight loss,[1]; [5],5.0 ± 3.7%
same,Incidence of severe EAE,[1]; [5],2 of 11
same,Mean # days with severe EAE,[1]; [5],0.1 ± 0.2 days
same,Mean cum. score,[1]; [5],3.1 ± 1.8
same,Mean maximal score,[1]; [5],0.7 ± 0.7
same,Median cum. score,[1]; [5],2.8
same,Median maximal score,[1]; [5],0.5
same,Incidence of severe EAE,[1]; [6],0 of 5
same,Mean # days with severe EAE (A-P),[1]; [6],0.3 ± 0.7 days
same,Mean cum. score,[1]; [7],1.7 ± 0.9
same,Mean maximal score,[1]; [7],0.4 ± 0.1
same,Median cum. score,[1]; [7],1.8
same,Median maximal score,[1]; [7],0.3
same,Incidence of severe EAE,[1]; [8],1 of 6
same,Mean # days with severe EAE (A-P),[1]; [8],0.1 ± 0.2 days
same,Mean cum. score,[1]; [9],1.0 ± 0.7
same,Mean maximal score,[1]; [9],0.6 ± 0.7
same,Median cum. score,[1]; [9],0.8
same,Median maximal score,[1]; [9],0.4
same,Incidence of severe EAE,[1]; [10],0 of 7
same,Mean # days with severe EAE (A-P),[1]; [10],0.0 ± 0.0 days
same,Mean cum. score,[1]; [11],1.7 ± 0.6
same,Mean maximal score,[1]; [11],0.4 ± 0.1
same,Median cum. score,[1]; [11],1.8
same,Median maximal score,[1]; [11],0.3
same,Mean cum. score,[1]; [12],1.4 ± 0.8
same,Mean maximal score,[1]; [12],0.4 ± 0.4
same,Median cum. score,[1]; [12],1.4
same,Median maximal score,[1]; [12],0.3
same,Incidence of severe EAE,[1]; [13],1 of 18
same,Mean # days with severe EAE (A-P),[1]; [13],0.1 ± 0.4 days
same,"EAE-associated weight loss, mean",[1]; experiment 1 of Table 7,9.7%
same,"EAE-associated weight loss, mean",[1]; experiment 2 of Table 7,8.7%
same,"EAE-associated weight loss, mean",[1]; experiment 3 of Table 7,8.5%
same,Incidence of severe EAE,[2]; [14],4 of 9
same,Mean # days with severe EAE,[2]; [14],1.0 ± 1.3 days
same,Incidence of EAE,[2]; [15],9 of 9
same,Mean cumulative score,[2]; [15],3.4 ± 2.7
same,Mean maximal score,[2]; [15],1.4 ± 0.9
same,Median cumulative score,[2]; [15],2.5
same,Median maximal score,[2]; [15],1.0
same,Incidence of EAE,[2]; [16],8 of 8
same,Incidence of severe EAE,[2]; [16],4 of 8
same,Mean # days with severe EAE,[2]; [16],0.8 ± 1.0 days
same,Mean cumulative score,[2]; [16],7.0 ± 5.3
same,Mean maximal score,[2]; [16],1.5 ± 0.9
same,Median cumulative score,[2]; [16],5.9
same,Median maximal score,[2]; [16],1.5
same,Mean # days with severe EAE,[2]; [17],0.6 ± 1.3 days
same,Incidence of severe EAE,[2]; [18],1 of 4
same,Incidence of EAE,[2]; [19],4 of 4
same,Mean cumulative score,[2]; [19],6.3 ± 6.7
same,Mean maximal score,[2]; [19],1.3 ± 1.2
same,Median cumulative score,[2]; [19],3.9
same,Median maximal score,[2]; [19],1.0
same,Mean # days with severe EAE,[2]; [20],1.0 ± 0.7 days
same,Incidence of severe EAE,[2]; [21],3 of 4
same,Incidence of EAE,[2]; [22],4 of 4
same,Mean cumulative score,[2]; [22],7.8 ± 4.3
same,Mean maximal score,[2]; [22],1.6 ± 0.8
same,Median cumulative score,[2]; [22],8.9
same,Median maximal score,[2]; [22],2.0
same,% mean maximal weight loss,[2]; [23],12.6 ± 3.6%
same,Incidence of EAE,[2]; [23],14 of 14
same,Incidence of severe EAE,[2]; [23],7 of 14
same,Mean # days with severe EAE,[2]; [23],1.0 ± 1.2 days
same,Mean cum. score,[2]; [23],7.6 ± 6.2
same,Mean maximal score,[2]; [23],1.5 ± 1.1
same,Median cum. score,[2]; [23],5.5
same,Median maximal score,[2]; [23],1.5
same,% mean maximal weight loss,[2]; [24],14.8 ± 1.9%
same,Incidence of EAE,[2]; [24],7 of 7
same,Incidence of severe EAE,[2]; [24],4 of 7
same,Mean # days with severe EAE,[2]; [24],1.1 ± 1.2 days
same,Mean cum. score,[2]; [24],8.0 ± 6.3
same,Mean maximal score,[2]; [24],1.5 ± 1.0
same,Median cum. score,[2]; [24],7.0
same,Median maximal score,[2]; [24],2.0
same,% mean maximal weight loss,[2]; [25],10.5 ± 3.6%
same,Incidence of EAE,[2]; [25],7 of 7
same,Incidence of severe EAE,[2]; [25],3 of 7
same,Mean # days with severe EAE,[2]; [25],0.9 ± 1.2 days
same,Mean cum. score,[2]; [25],7.2 ± 6.4
same,Mean maximal score,[2]; [25],1.5 ± 1.4
same,Median cum. score,[2]; [25],3.0
same,Median maximal score,[2]; [25],0.5
same,day of disease onset,"[2]; baculovirus-derived, pretreatment days −21, −14, −7 (not shown)",did not significantly modulate
B2,% mean maximal weight loss,[1]; [3],10.6 ± 5.3%
same,Incidence of severe EAE,[1]; [3],5 of 6
same,Mean # days with severe EAE,[1]; [3],1.4 ± 1.1 days
same,Mean cum. score,[1]; [3],11.1 ± 5.1
same,Mean maximal score,[1]; [3],2.2 ± 0.8
same,Median cum. score,[1]; [3],10.3
same,Median maximal score,[1]; [3],2.0
same,% mean maximal weight loss,[1]; [4],20.7 ± 1.9%
same,Incidence of severe EAE,[1]; [4],3 of 5
same,Mean # days with severe EAE,[1]; [4],1.3 ± 1.4 days
same,Mean cum. score,[1]; [4],11.2 ± 5.9
same,Mean maximal score,[1]; [4],2.0 ± 1.0
same,Median cum. score,[1]; [4],8.3
same,Median maximal score,[1]; [4],2.0
same,% mean maximal weight loss,[1]; [5],15.2 ± 6.5%
same,Incidence of severe EAE,[1]; [5],8 of 11
same,Mean # days with severe EAE,[1]; [5],1.4 ± 1.2 days
same,Mean cum. score,[1]; [5],11.1 ± 5.2
same,Mean maximal score,[1]; [5],2.1 ± 0.8
same,Median cum. score,[1]; [5],8.3
same,Median maximal score,[1]; [5],2.0
same,Incidence of severe EAE,[1]; [8],6 of 6
same,Mean # days with severe EAE (A-P),[1]; [8],1.9 ± 2.1 days
same,Mean cum. score,[1]; [9],7.2 ± 3.8
same,Mean maximal score,[1]; [9],2.2 ± 1.0
same,Median cum. score,[1]; [9],5.9
same,Median maximal score,[1]; [9],2.5
same,Incidence of severe EAE,[1]; [10],2 of 7
same,Mean # days with severe EAE (A-P),[1]; [10],0.4 ± 0.6 days
same,Mean cum. score,[1]; [11],3.1 ± 2.2
same,Mean maximal score,[1]; [11],1.0 ± 1.1
same,Median cum. score,[1]; [11],2.5
same,Median maximal score,[1]; [11],0.5
same,Mean cum. score,[1]; [12],5.0 ± 3.6
same,Mean maximal score,[1]; [12],1.5 ± 1.2
same,Median cum. score,[1]; [12],4.0
same,Median maximal score,[1]; [12],1.0
same,Incidence of severe EAE,[1]; [13],8 of 13
same,Mean # days with severe EAE (A-P),[1]; [13],1.1 ± 1.7 days
same,course of EAE during treatment,"[1]; treatment after onset, disease rebound after cessation on day 12 or day 14",initial suppression of EAE
same,Incidence of EAE,[2]; [16],8 of 8
same,Incidence of severe EAE,[2]; [16],8 of 8
same,Mean # days with severe EAE,[2]; [16],3.4 ± 0.8 days
same,Mean cumulative score,[2]; [16],22.8 ± 4.0
same,Mean maximal score,[2]; [16],2.9 ± 0.4
same,Median cumulative score,[2]; [16],22.5
same,Median maximal score,[2]; [16],3.0
same,Mean # days with severe EAE,[2]; [17],3.0 ± 0.4 days
same,Incidence of severe EAE,[2]; [18],4 of 4
same,Incidence of EAE,[2]; [19],4 of 4
same,Mean cumulative score,[2]; [19],22.0 ± 2.6
same,Mean maximal score,[2]; [19],3.0 ± 0.0
same,Median cumulative score,[2]; [19],21.3
same,Median maximal score,[2]; [19],3.0
same,Mean # days with severe EAE,[2]; [20],3.9 ± 0.9 days
same,Incidence of severe EAE,[2]; [21],4 of 4
same,Incidence of EAE,[2]; [22],4 of 4
same,Mean cumulative score,[2]; [22],23.7 ± 5.3
same,Mean maximal score,[2]; [22],2.8 ± 0.5
same,Median cumulative score,[2]; [22],23.6
same,Median maximal score,[2]; [22],3.0
